Laboratory results published in patent publication US20250250355A1 (BIOSION, published 2025).
Read-outs that look alike come from different tables or passages of the source.

Key:
[1] = target: T1, human SIRPα-V8-his protein (human, UniProt P78324 31-370, limits assumed); test: indirect ELISA on coated human SIRPα-V8-his, OD(450-630)
[2] = target: T1, human SIRPα-V8-his protein; test: indirect ELISA on coated human SIRPα-V8-his, OD(450-630); curve not visible in the scan
[3] = target: T2, full length human SIRPα on cell membranes (HEK293-SIRPα cells; 293F-SIRPα cells) (human, UniProt P78324 31-504); test: cell based binding FACS on 293F cells expressing human SIRPα, MFI
T2 construct: whole, on cells; also called cell surface human SIRPα; cell surface SIRPα

[4] = target: T3, human SIRPα protein (soluble, used on 293F-CD47 cells) (human, UniProt P78324 31-370, limits assumed); test: cell based blocking FACS on 293F-CD47 cells; soluble human SIRPα protein blocked from binding cell surface human CD47, MFI
[5] = target: T2, full length human SIRPα on cell …; test: cell based binding FACS on HEK293-SIRPα cells, MFI; curve not visible in the scan
[6] = target: T3, human SIRPα protein (soluble, used on …); test: cell based blocking FACS on 293F-CD47 cells; soluble human SIRPα protein blocked from binding cell surface human CD47, MFI; remark: listed apart in the source
human SIRPα-his protein = human SIRPα-his protein (human, UniProt P78324 31-370); test: competitive ELISA on coated human SIRPα-his; blocked ligand: biotin-labeled human CD47-his, OD(450-630)
[7] = target: human SIRPα-isoform 2-his protein (human); test: indirect ELISA on coated human SIRPα-isoform 2-his, OD(450-630); plateau at OD about 1.0
[8] = target: T4, recombinant human SIRPα-Fc protein (human, biotin-labeled (sites not given)); test: capture ELISA, antibody captured on anti-mouse IgG F(ab')2, biotin-labeled human SIRPα-Fc in solution, OD(450-630)
T4 construct: also called biotin-labeled human SIRPα-Fc protein

[9] = target: T5, full length human SIRPγ endogenously expressed on Jurkat cells (human, UniProt Q9P1W8 29-387); test: cell based binding FACS on Jurkat cells (endogenous human SIRPγ), MFI; plateau at MFI about 330
T5 construct: whole, on cells; also called human SIRPγ expressed on Jurkat cells

[10] = target: human SIRPα-isoform 2-his protein (human); test: indirect ELISA on coated human SIRPα-isoform 2-his, OD(450-630)
[11] = target: T5, full length human SIRPγ endogenously …; test: cell based binding FACS on Jurkat cells (endogenous human SIRPγ), MFI; plateau at MFI about 325
[12] = target: T2, full length human SIRPα on cell …; test: cell based blocking FACS on 293F-SIRPα cells; blocked ligand: human CD47 protein (CD47-Fc), MFI
[13] = target: human SIRPα-isoform 2-his protein (human); test: indirect ELISA on coated human SIRPα-isoform 2-his, OD(450-630); remark: listed apart in the source
[14] = target: T6, full length human SIRPβ on cell membranes (HEK293-SIRPβ cells; 293F cells expressing human SIRPβ) (human, UniProt O00241 30-398); test: cell based binding FACS on 293F cells expressing human SIRPβ, MFI
T6 construct: whole, on cells; also called cell surface human SIRPβ

[15] = target: T2, full length human SIRPα on cell …; test: cell based blocking FACS on 293F-SIRPα cells; blocked ligand: human CD47 protein (CD47-Fc), MFI; remark: listed apart in the source
[16] = target: T6, full length human SIRPβ on cell …; test: cell based binding FACS on 293F cells expressing human SIRPβ, MFI; remark: listed apart in the source
mouse SIRPα-his = target: T7, mouse SIRPα-his (mouse, UniProt P97797 35-363, limits assumed); test: indirect ELISA on coated mouse SIRPα-his, OD(450-630)
T7 chain: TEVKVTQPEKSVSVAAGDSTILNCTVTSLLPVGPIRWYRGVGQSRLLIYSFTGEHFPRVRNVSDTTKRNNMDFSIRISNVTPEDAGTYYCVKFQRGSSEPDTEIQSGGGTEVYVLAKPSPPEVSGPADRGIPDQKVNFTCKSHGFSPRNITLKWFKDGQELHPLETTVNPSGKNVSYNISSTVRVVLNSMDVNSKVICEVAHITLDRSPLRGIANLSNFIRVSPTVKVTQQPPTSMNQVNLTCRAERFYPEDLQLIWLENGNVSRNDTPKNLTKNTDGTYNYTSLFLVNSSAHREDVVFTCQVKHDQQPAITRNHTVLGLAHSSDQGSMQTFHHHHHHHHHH

[17] = target: T6, full length human SIRPβ on cell …; test: cell based binding FACS on HEK293-SIRPβ cells, MFI; curve not visible in the scan
[18] = target: T5, full length human SIRPγ endogenously …; test: cell based binding FACS on Jurkat cells (endogenous human SIRPγ), MFI; curve not visible in the scan
[19] = target: T2, full length human SIRPα on cell …; test: cell based binding FACS on 293F cells expressing human SIRPα, MFI; remark: listed apart in the source

EC50 [1]: 0.255 nM
EC50 [2]: 0.339 nM
EC50 [3]: 0.307 nM
IC50 [4]: 0.241 nM
EC50 [5]: 0.383 nM
IC50 [6]: 0.25 nM
IC50 (human SIRPα-his protein): 2 nM
EC50 [7]: 0.436 nM
EC50 [8]: 0.0774 nM
EC50 [9]: 0.00724 nM
EC50 [10]: 0.409 nM
EC50 [11]: 0.00761 nM
IC50 [12]: 0.753 nM
EC50 [13]: 0.307 nM
EC50 [14]: 0.156 nM
IC50 [15]: 0.731 nM
EC50 [16]: 0.164 nM
binding result (mouse SIRPα-his): no binding (tested: ~67 nM)
EC50 [17]: 0.272 nM
EC50 [18]: 0.0102 nM
EC50 [19]: 0.309 nM
B1: KWAR23 (antibody, human IgG4 S228P, kappa, V domains shown)
VH: EVQLQQSGAELVKPGASVKLSCTASGFNIKDYYIHWVQQRTEQGLEWIGRIDPEDGETKYAPKFQDKATITADTSSNTAYLHLSSLTSEDTAVYYCARWGAYWGQGTLVTVSA
VL: QIVLTQSPAIMSASPGEKVTLTCSASSSVSSSYLYWYQQKPGSSPKLWIYSTSNLASGVPARFSGSGSGTSYSLTISSMEAEDAASYFCHQWSSYPRTFGAGTKLELKR
notes: also called BM
